Laboratory results taken from patent US20210388105A1 (ELPISCIENCE SUZHOU BIOPHARMA, published 2021).
Substitutions are numbered along the chain they refer to.

Key:
Experiment in all cases: FACS, mutant-EGFP on HEK293F cells
[1] = target: T1, KW27-3 (human CD39 mutant, C-terminal EGFP) (human, UniProt P49961 1-510)
T1 construct: expressed on HEK293F cells; not shown: C-terminal EGFP fusion (vector pCMV3-GFPSpark)
T1 chain: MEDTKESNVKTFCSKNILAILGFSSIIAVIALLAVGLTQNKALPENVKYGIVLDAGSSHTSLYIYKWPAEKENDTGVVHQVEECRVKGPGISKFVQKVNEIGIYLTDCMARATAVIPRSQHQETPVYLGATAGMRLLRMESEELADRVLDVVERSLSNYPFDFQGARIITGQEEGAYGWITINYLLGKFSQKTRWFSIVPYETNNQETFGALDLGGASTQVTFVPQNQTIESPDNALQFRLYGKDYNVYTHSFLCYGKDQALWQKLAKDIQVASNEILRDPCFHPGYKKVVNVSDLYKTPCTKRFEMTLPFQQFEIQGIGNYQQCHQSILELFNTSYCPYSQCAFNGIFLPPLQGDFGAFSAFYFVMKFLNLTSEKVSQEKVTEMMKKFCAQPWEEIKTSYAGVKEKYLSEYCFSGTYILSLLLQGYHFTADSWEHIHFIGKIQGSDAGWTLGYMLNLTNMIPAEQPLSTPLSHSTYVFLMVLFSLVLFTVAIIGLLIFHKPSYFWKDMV
Procedure: (§1) Briefly, the human CD39 mutants were generated by gene synthesis and then cloned into an expression vector pCMV3-GFPSpark. The vectors containing the validated mutated sequences were prepared and transfected into HEK293F cells. Three days post transfection, the cells were collected to testing EGFP for transgene expression. A range of dosages of antibodies (start from 100 nM, 3-folds dilution, 11 points) were tested on the 20 generated mutants and stained by AlexFluor647 labelled anti-hIgG by FACS. Antibody binding was descripted as relative binding which is derived from AlexFluor647 intensity divided by GFP intensity.

[2] = target: T2, KW27-15 (human CD39 mutant, C-terminal EGFP) (human, UniProt P49961 1-510)
T2 construct: expressed on HEK293F cells; not shown: C-terminal EGFP fusion (vector pCMV3-GFPSpark)
T2 chain: T1 chain with A110E, T113R, A114E, A402P, G403A, K405A, E406A
Procedure: as §1

[3] = target: T3, KW27-10 (human CD39 mutant, C-terminal EGFP) (human, UniProt P49961 1-510)
T3 construct: expressed on HEK293F cells; not shown: C-terminal EGFP fusion (vector pCMV3-GFPSpark)
T3 chain: T1 chain with A110E, T113R, A114E, K288E, K289A, V290A, E315R
Procedure: as §1

[4] = target: T4, KW27-9 (human CD39 mutant, C-terminal EGFP) (human, UniProt P49961 1-510)
T4 construct: expressed on HEK293F cells; not shown: C-terminal EGFP fusion (vector pCMV3-GFPSpark)
T4 chain: T1 chain with A110E, T113R, A114E, S294A, K298G, K303A, E306A, T308K, Q312A
Procedure: as §1

Measured: binding result

B1: c35 (antibody, V domains shown)
VH: EVRLQQSGAELVKPGASVKLSCTASGFNIEDTYVHWMKQRPEQGLEWIGRIDPAIDNSKYDPKFQGKATITAVSSSNTAYLQLSSLTSEDTAVYYCALYDGYNVYAMDYWGQGTSVTVSS
VL: DIVMTQAAFSNPVTLGTSASISCRSSKNLLHSNGITYLYWYLQRPGQSPQLLIYRASTLASGVPNRFSGSESGTDFTLRISRVEAEDVGVYYCAQLLELPHTFGGGTKLEIK
notes: its making is not described; also called chimeric antibody c35
binds: all assays above

B2: Antibody T895 (antibody, V domains shown)
VH: EVQLQQSGPELVKPGASVKMSCKASGYTFTDYNMHWVKQSHGRTLEWIGYIVPLNGGSTFNQKFKGRATLTVNTSSRTAYMELRSLTSEDSAAYYCARGGTRFAYWGQGTLVTVSA
VL: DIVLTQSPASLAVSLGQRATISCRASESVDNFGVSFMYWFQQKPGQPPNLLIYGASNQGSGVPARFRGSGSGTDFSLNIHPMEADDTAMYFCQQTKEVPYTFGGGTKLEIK
notes: also called 31895
binds: all assays above

B3: c34 (antibody, V domains shown)
VH: EIQVQQSGPELVKPGASVKVSCKASGYSFTDYNMYWVKQSHGKSLEWIGFIDPYNGYTSYNQKFKGKATLTIDKSSSTAFMHLNSLTSEDSAVYYCAIYGYDDAYYFDYWGQGTTLTVSS
VL: QIVLTQSPAIMSASPGEKVTITCSATSSVSYMHWFRQKPGTSPKLWIYSTSNLASGVPARFSGSGSGTSYSLTISRMAAEDAATYYCQQRITYPFTFGSGTKLEIT
notes: its making is not described; also called chimeric antibody c34
binds: all assays above

B4: hu23.H5L5 (antibody, V domains shown)
VH: QVQLVQSGAEVKKPGASVKVSCKASGYNLKDTFLHWVRQAPGQGLEWMGRIDPANGNIKYDPKFQGRVTITADTSANTAYMELISLRSEDTAVYYCANSPYYYGSGYRIFDVWGQGTTVTVSS
VL: QIVLTQSPATLSLSPGERATLSCSAFSSVNYMHWYQQKPGQAPRLLIYTTSNLASGIPTRFSGSGSGTSYTLTISSLEPEDFAVYYCQQRSTYPFTFGQGTKLEIK
notes: humanized c23
binds: all assays above

B5: Antibody 9-8B (antibody, V domains shown)
VH: QIQLVQSGPELKKPGETVKISCKASGYTFTHYGMNWVKQAPGKGLKWMGWINTYTGELTYADDFKGRFAFSLETSASTAYLQINNLKNEDTATYFCARRAYYRYDYVMDYWGQGTSVTVSS
VL: DIVMTQSQKFMSTSVGDRVSVTCKASHNVGTNVAWYQQKPGQSPKALIYSASYRYSGVPGRFTGSGSGTDFTLTISNVQSEDLAEYFCHQYNNYPYTFGGGTKLEIK
binds: all assays above
